# Source: paper PMC11893383 (Frontiers in Immunology, 2025)
# How the values were obtained:
# [1] = target: T1, SARS-CoV-2 wild-type (WT) spike trimer (SARS-CoV-2, wild type (Wuhan-Hu-1 …, UniProt P0DTC2)); experiment: ELISA; conditions: both partners purified
# T1 construct: also called spike protein
# [2] = target: T2, SARS-CoV-2 Omicron B.1.1.529 receptor-binding domain (RBD), His-tagged (SARS-CoV-2 Omicron B.1.1.529 (BA.1), strain); experiment: BLI; conditions: both partners purified
# T2 construct: also called B.1.1.529 RBD; RBD Omicron B.1.1.529
Binder,binding result [1],Kd [2]
"AB6-17 (antibody, V domains shown) VH: QLQLQESGPGLVESSETLSLTCTVSSGSISRSTYYWGWIRQPPGKGMEWIGSISSGGSTYYNPSLNSRVTISIDTSKNQFSLKLRSVTAADTAVYYCARALQWPSPRIDYWAQGTLVTVSS VL: DIQMTQSPSSLSASVGDRVTITCRASQSISSYLNWYQHKPGKAPKLLIYAASSLESGVPSRFTGSGSGTDFTLTIDSLQPEDFATYYCQQSYSTPLFTFGPGTTVDIK",binds,
"AB5-18 (antibody, V domains shown) VH: EVQLVESGGGLVQPGGSLRLSCAASGITVTSNYMTWVRQAPGKGLEWVSLIYAGGSTFYADSVKGRFTVSRDKSKNTLYLQMNSLRGEDTAVYYCARDLQEAGGMDVWGQGTTVTVSS VL: ENVLTQSPGTLSLSPGERATLSCRASQFVSSTFLAWYQQKPGQAPRLLMYGASNRATDIPDRFSGGGSGTDFTLTISRLEPEDFAVYYCQQFGSSPFTFGQGTKLEIK",,3.4 nM
"AB5-16 (antibody, V domains shown) VH: QALMVQSEAAVKKPGASVKVSCKATGDAFSNHYLHWLRQAPGQGLEWLGIINPGAGSTTYAQKFQGRLTVTTDTSTNTVYMELSSLRSDDTAVYYCARDGAFIPSSYYYGMDVWGQGTTVTVSS VL: EIVLTQSPGTLALSPGERATLSCRASQSVSSSYLAWYQQKPGQAPRLLIYGASSRATGVPDRFSGSGSGTDFTLTVSSLEPEDFAVYYCQQREAFGQGTKVEVK",binds,
"AB5-21 (antibody, V domains shown) VH: EVQLVESGGGLVQPGGSLRLSCAASGLIVSSNYMHWVRQAPGEGLEWVSVIYSGGSTFYADSVKGRFTISRDNSKNTLYLQMNSLRAEDTAVYYCARGLGDPMDVWGQGTTVTVSS VL: DIQLTQSPSFLSASVGDRVTITCRASQGISSDLAWYQQKPGKAPKLLINAASTLQNGVPSRFSGSGSGTEFTLSISSLQPEDFATYYCQQLNSYPPKLTFGGGTKVEIK",,30 nM
"AB5-20 (antibody, V domains shown) VH: QVQLVESGGGVVQPGRSLRLSCTASGFTFRHYGLHWVRQAPGKGLEWVAVILYDGSDEDYRDSVKGRFTISRDNSKNTLYLQMNSLRPEDTAVYYCAKQSGPYCSGGNCYSGHFDYWGQGTPVSVSS VL: DIQMTQSPSSLSASVGDRVTITCQASQDISKSLSWYEQKPGKAPRLLIFEASNLETGVPSRFSGSGSGTSFSFTISSLQPEDFATYYCQQYDNVPLTFGGGTKVERK",binds,
